{"source": "paper PMC11839208", "about": "(2025)", "binders": {"B1": {"name": "FimA (protein)", "chain": "AATTVNGGTVHFKGEVVNAACAVDAGSVDQTVQLGQVRTASLAQEGATSSAVGFNIQLNDCDTNVASKAAVAFLGTAIDAGHTNVLALQSSAAGSATNVGVQILDRTGAALTLDGATFSSETTLNNGTNTIPFQARYFATGAATPGAANADATFKVQYQ"}}, "molecular_target": "Concanavalin A (Canavalia ensiformis, UniProt P02866)", "sequence (P02866 30-148, chain 1 of 2)": "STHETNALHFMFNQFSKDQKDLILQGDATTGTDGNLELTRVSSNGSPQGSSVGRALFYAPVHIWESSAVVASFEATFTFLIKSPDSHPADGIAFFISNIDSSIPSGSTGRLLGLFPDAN", "sequence (P02866 164-281, chain 2 of 2)": "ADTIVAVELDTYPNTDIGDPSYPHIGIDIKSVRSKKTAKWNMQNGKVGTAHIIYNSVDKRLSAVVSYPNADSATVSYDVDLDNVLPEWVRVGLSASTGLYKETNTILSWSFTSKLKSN", "test": "spectral shift (thermal shift in results)"}
{"binder": "B1", "values": [{"measurement": "Kd", "result": "~40", "unit": "µM"}]}
